This is an account of results in patent publication US5393869A, “Parathyroid hormone derivatives” (Takeda Chemical Industries, Ltd., priority 1990, dated 1995).

No end group written: not given here.

For one assay, the target named is T1, PTH receptor (Mus musculus, UniProt P41593).
T1 construct: a mouse cranial bone-derived osteoblast-like cell strain, MC3T3-EI cells, cultivated on a 96-well multiplate; endogenous in cells; host or cells: MC3T3-E1 mouse osteoblast-like cells
T1 sequence (P41593 27-591): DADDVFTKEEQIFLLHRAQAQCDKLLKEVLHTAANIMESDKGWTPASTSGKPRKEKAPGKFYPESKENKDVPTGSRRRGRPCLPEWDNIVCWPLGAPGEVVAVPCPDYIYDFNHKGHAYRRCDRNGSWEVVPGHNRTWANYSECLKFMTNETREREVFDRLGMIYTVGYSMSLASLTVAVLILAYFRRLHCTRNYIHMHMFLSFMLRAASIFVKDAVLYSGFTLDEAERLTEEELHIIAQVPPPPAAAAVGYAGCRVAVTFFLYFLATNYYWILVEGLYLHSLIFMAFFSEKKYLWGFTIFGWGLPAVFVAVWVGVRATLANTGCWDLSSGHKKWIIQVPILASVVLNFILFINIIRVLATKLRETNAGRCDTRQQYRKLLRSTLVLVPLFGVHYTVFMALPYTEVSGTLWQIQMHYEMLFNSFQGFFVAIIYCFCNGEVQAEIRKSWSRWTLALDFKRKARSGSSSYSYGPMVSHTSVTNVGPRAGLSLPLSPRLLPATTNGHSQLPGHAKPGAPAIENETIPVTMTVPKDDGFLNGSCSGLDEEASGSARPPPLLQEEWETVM
Put plainly: cAMP production by PTH (1-34) analogues in MC3T3-EI osteoblast-like cells. It is filed as cell-based. The conditions noted are these: cAMP production, 0.01-100 nM analogue, room temperature 30 minutes, hPTH(1-34) = 1.00. Here is the method:
The biological activity of the peptide analogues was evaluated by a modified version of the method reported by Shigeno et al. in The Journal of Biological Chemistry 263, 18369-18377 (1988). A culture solution (Hank's solution, containing 20 mM N-2-hydroxyethylpiperazine-N'-2-ethanesulfonic acid (HEPES), 0.1% bovine serum albumin and 0.5 mM isobutylmethyl-xanthine) containing 0.01, 0.1, 1, 10 or 100 nM analogue was added in an amount of 100 μto a mouse cranial bone-derived osteoblast-like cell strain, MC3T3-EI cells, cultivated on a 96-well multiplate (Nunclon, Nunc), followed by reaction at room temperature for 30 minutes. After addition of 100 μof 0.2N hydrochloric acid, the mixture was immersed in boiling water for 2.5 minutes, and cyclic adenosine monophosphate (cAMP) produced by a PTH receptor was extracted from the cells. The total cAMP in the culture solution and the cells was assayed using a commercial radioimmunoassay kit (cyclic AMP [^125 I] kit "Du Pont-Daiichi", Daiichi Kagaku Yakuhin).
A general note: cAMP levels reflect the balance of adenylyl cyclase and phosphodiesterase activity.
For `CC[C@H](C)[C@H](NC(=O)[C@H](CCC(=O)O)NC(=O)[C@H](CO)NC(=O)[C@@H](NC(=O)[C@@H](N)CO)C(C)C)C(=O)N[C@@H](CCC(N)=O)C(=O)N[C@@H](CC(C)C)C(=O)N[C@@H](CCSC)C(=O)N[C@@H](Cc1c[nH]cn1)C(=O)N[C@@H](CC(N)=O)C(=O)N[C@@H](Cc1ccccc1)C(=O)NCC(=O)N[C@@H](CCCCN)C(=O)N[C@@H](Cc1c[nH]cn1)C(=O)N[C@@H](CC(C)C)C(=O)N[C@@H](CC(N)=O)C(=O)N[C@@H](CO)C(=O)N[C@@H](CCSC)C(=O)N[C@@H](CCC(=O)O)C(=O)N[C@@H](CCCNC(=N)N)C(=O)N[C@H](C(=O)N[C@@H](CCC(=O)O)C(=O)N[C@@H](Cc1c[nH]c2ccccc12)C(=O)N[C@@H](CC(C)C)C(=O)N[C@@H](CCCNC(=N)N)C(=O)N[C@@H](CCCCN)C(=O)N[C@@H](CCCCN)C(=O)N[C@@H](CC(C)C)C(=O)N[C@@H](CCC(N)=O)C(=O)N[C@@H](CC(=O)O)C(=O)N[C@H](C(=O)N[C@@H](Cc1c[nH]cn1)C(=O)N[C@@H](CC(N)=O)C(=O)N[C@@H](Cc1ccccc1)C(N)=O)C(C)C)C(C)C` [[Phe^11] hPTH (1-34)NH2, (Phe^11)hPTH(1-34)NH2], the “Biological Activity (Represented by Relative Activity to hPTH(1-34))” value came to 1.3. On the same count and under the same terms, in the case of `CC[C@H](C)[C@H](NC(=O)[C@H](CCC(=O)O)NC(=O)[C@H](CO)NC(=O)[C@@H](NC(=O)[C@@H](N)CO)C(C)C)C(=O)N[C@@H](CCC(N)=O)C(=O)N[C@@H](CC(C)C)C(=O)N[C@@H](CCSC)C(=O)N[C@@H](Cc1c[nH]cn1)C(=O)N[C@@H](CC(N)=O)C(=O)N[C@@H](CO)C(=O)NCC(=O)N[C@@H](CCCCN)C(=O)N[C@@H](Cc1c[nH]cn1)C(=O)N[C@@H](CC(C)C)C(=O)N[C@@H](CC(N)=O)C(=O)N[C@@H](CO)C(=O)N[C@@H](CCSC)C(=O)N[C@@H](CCC(=O)O)C(=O)N[C@@H](CCCNC(=N)N)C(=O)N[C@H](C(=O)N[C@@H](CCC(=O)O)C(=O)N[C@@H](Cc1c[nH]c2ccccc12)C(=O)N[C@@H](CC(C)C)C(=O)N[C@@H](CCCNC(=N)N)C(=O)N[C@@H](CCCCN)C(=O)N[C@@H](CCCCN)C(=O)N[C@@H](CC(C)C)C(=O)N[C@@H](CCC(N)=O)C(=O)N[C@@H](CC(=O)O)C(=O)N[C@H](C(=O)N[C@@H](Cc1c[nH]cn1)C(=O)N[C@@H](CC(N)=O)C(=O)N[C@@H](Cc1ccccc1)C(N)=O)C(C)C)C(C)C` [[Ser^11] hPTH (1-34)NH2, (Ser^11)hPTH(1-34)NH2] it was 0.8.

On to `CC[C@H](C)[C@H](NC(=O)[C@H](CCC(=O)O)NC(=O)[C@H](CO)NC(=O)[C@@H](NC(=O)[C@@H](N)CO)C(C)C)C(=O)N[C@@H](CCC(N)=O)C(=O)N[C@@H](CC(C)C)C(=O)N[C@@H](CCSC)C(=O)N[C@@H](Cc1c[nH]cn1)C(=O)N[C@@H](CC(N)=O)C(=O)N[C@@H](CC(C)C)C(=O)NCC(=O)N[C@@H](CCCCN)C(=O)N[C@@H](Cc1c[nH]cn1)C(=O)N[C@@H](CC(C)C)C(=O)N[C@@H](CC(N)=O)C(=O)N[C@@H](CO)C(=O)N[C@@H](CCSC)C(=O)N[C@@H](CCC(=O)O)C(=O)N[C@@H](CCCNC(=N)N)C(=O)N[C@H](C(=O)N[C@@H](CCC(=O)O)C(=O)N[C@@H](Cc1c[nH]c2ccccc12)C(=O)N[C@@H](CC(C)C)C(=O)N[C@@H](CCCNC(=N)N)C(=O)N[C@@H](CCCCN)C(=O)N[C@@H](CCCCN)C(=O)N[C@@H](CC(C)C)C(=O)N[C@@H](CCC(N)=O)C(=O)N[C@@H](CC(=O)O)C(=O)N[C@H](C(=O)N[C@@H](Cc1c[nH]cn1)C(=O)N[C@@H](CC(N)=O)C(=O)N[C@@H](Cc1ccccc1)C(=O)O)C(C)C)C(C)C` [hPTH (1-34), hPTH(1-34), reference compound], for which the “Biological Activity (Represented by Relative Activity to hPTH(1-34))” value was found to be 1.00. Take “(Arg^19,21)hPTH(1-34)NH2 [[Arg^13, 21] hPTH (1-34)NH2]”: the “Biological Activity (Represented by Relative Activity to hPTH(1-34))” value is 0.9. As for “SVSEIQLLHNFGKHLNSLERVEWLRKKLQDVHNF-NH2 [[Leu^8, Phe^11, Leu^18] hPTH (1-34)NH2, (Leu^8, Phe^11,Leu^18)hPTH(1-34)NH2]”, the “Biological Activity (Represented by Relative Activity to hPTH(1-34))” value was 0.9.

The same assay, now with this note: human PTH (1-34) added as a standard, 0.01-100 nM.
For `CC[C@H](C)[C@H](NC(=O)[C@H](CCC(=O)O)NC(=O)[C@H](CO)NC(=O)[C@@H](NC(=O)[C@@H](N)CO)C(C)C)C(=O)N[C@@H](CCC(N)=O)C(=O)N[C@@H](CC(C)C)C(=O)N[C@@H](CCSC)C(=O)N[C@@H](Cc1c[nH]cn1)C(=O)N[C@@H](CC(N)=O)C(=O)N[C@@H](CC(C)C)C(=O)NCC(=O)N[C@@H](CCCCN)C(=O)N[C@@H](Cc1c[nH]cn1)C(=O)N[C@@H](CC(C)C)C(=O)N[C@@H](CC(N)=O)C(=O)N[C@@H](CO)C(=O)N[C@@H](CCSC)C(=O)N[C@@H](CCC(=O)O)C(=O)N[C@@H](CCCNC(=N)N)C(=O)N[C@H](C(=O)N[C@@H](CCC(=O)O)C(=O)N[C@@H](Cc1c[nH]c2ccccc12)C(=O)N[C@@H](CC(C)C)C(=O)N[C@@H](CCCNC(=N)N)C(=O)N[C@@H](CCCCN)C(=O)N[C@@H](CCCCN)C(=O)N[C@@H](CC(C)C)C(=O)N[C@@H](CCC(N)=O)C(=O)N[C@@H](CC(=O)O)C(=O)N[C@H](C(=O)N[C@@H](Cc1c[nH]cn1)C(=O)N[C@@H](CC(N)=O)C(=O)N[C@@H](Cc1ccccc1)C(=O)O)C(C)C)C(C)C` [hPTH (1-34), hPTH(1-34), reference compound], the “cAMP production of the standard” value is reported as “increase in cAMP production depending on the concentration”.

The next assay addresses PTH receptor on MC3T3-EI cells (mouse cranial bone-derived osteoblast-like cell strain) (mouse) (UniProt P41593).
Experiment: not given
Settings: not given
Consider “(3-(2-naphthyl)-Ala^11)hPTH(1-34)NH2 (from UniProt P01270) (peptide)”, for which the cAMP production in MC3T3-EI cells, relative activity to hPTH(1-34) (relative activity to hPTH(1-34)) came to 1.7. The same measure, in the same setting: the same measure for “(3-(2-naphthyl)-D-Ala^12)hPTH(1-34)NH2 (from UniProt P01270) (peptide)”: 0.9; for “(Aib^1)hPTH(1-34) (from UniProt P01270) (peptide)”: 1.7; for “(Arg^19,21)hPTH(1-34)NH2 (from UniProt P01270) (peptide)”: 0.9.

Molecule “(Arg^19,21,2-(1,3-dithiolan-2-yl)-Trp^23)hPTH(1-34)NH2 (from UniProt P01270) (peptide)” gave a cAMP production in MC3T3-EI cells, relative activity to hPTH(1-34) (relative activity to hPTH(1-34)) of 1.7. In the case of “(D-Leu^12)hPTH(1-34)NH2 (from UniProt P01270) (peptide)”, the cAMP production in MC3T3-EI cells, relative activity to hPTH(1-34) (relative activity to hPTH(1-34)) is 0.5.

In the case of “(D-Ser^12)hPTH(1-34)NH2 (from UniProt P01270) (peptide)”, the cAMP production in MC3T3-EI cells, relative activity to hPTH(1-34) (relative activity to hPTH(1-34)) worked out at 0.8. Molecule “(Gln^27)hPTH(1-34) (from UniProt P01270) (peptide)” came in with a cAMP production in MC3T3-EI cells, relative activity to hPTH(1-34) (relative activity to hPTH(1-34)) of 2.5. As for “(His^25)hPTH(1-34) (from UniProt P01270) (peptide)”, the cAMP production in MC3T3-EI cells, relative activity to hPTH(1-34) (relative activity to hPTH(1-34)) turned out to be 1.

Regarding “(His^26)hPTH(1-34)NH2 (from UniProt P01270) (peptide)”, the cAMP production in MC3T3-EI cells, relative activity to hPTH(1-34) (relative activity to hPTH(1-34)) was 0.9. In turn, “(Leu^8)hPTH(1-34)NH2 (from UniProt P01270) (peptide)” yielded a cAMP production in MC3T3-EI cells, relative activity to hPTH(1-34) (relative activity to hPTH(1-34)) of 0.5. As to “(Leu^8, Phe^11,Leu^18)hPTH(1-34)NH2 (from UniProt P01270) (peptide)”, the cAMP production in MC3T3-EI cells, relative activity to hPTH(1-34) (relative activity to hPTH(1-34)) stood at 0.9.

As for “(Leu^18)hPTH(1-34) (from UniProt P01270) (peptide)”, the cAMP production in MC3T3-EI cells, relative activity to hPTH(1-34) (relative activity to hPTH(1-34)) stood at 0.4. On the same count and under the same terms, in the case of “(Leu^27)hPTH(1-34) (from UniProt P01270) (peptide)” it was 1.2; in that of “(Lys^11)hPTH(1-34)NH2 (from UniProt P01270) (peptide)”, 1.1; in that of “(Phe^11)hPTH(1-34) (from UniProt P01270) (peptide)”, 1.1. Take “(Phe^11)hPTH(1-34)NH2 (from UniProt P01270) (peptide)”: the cAMP production in MC3T3-EI cells, relative activity to hPTH(1-34) (relative activity to hPTH(1-34)) came out at 1.3. Molecule “(Ser^11)hPTH(1-34)NH2 (from UniProt P01270) (peptide)” showed a cAMP production in MC3T3-EI cells, relative activity to hPTH(1-34) (relative activity to hPTH(1-34)) of 0.8.
